This assay has as its target T1, human transferrin receptor (recombinant, for surface plasmon resonance) (human, UniProt P02786 89-760).
T1 construct: also called huTfR; human transferrin receptor-biotinylated
Put plainly: SPR 25C.

Numbering of substitutions follows the chain as printed.

T1 sequence (P02786 89-760 limits assumed): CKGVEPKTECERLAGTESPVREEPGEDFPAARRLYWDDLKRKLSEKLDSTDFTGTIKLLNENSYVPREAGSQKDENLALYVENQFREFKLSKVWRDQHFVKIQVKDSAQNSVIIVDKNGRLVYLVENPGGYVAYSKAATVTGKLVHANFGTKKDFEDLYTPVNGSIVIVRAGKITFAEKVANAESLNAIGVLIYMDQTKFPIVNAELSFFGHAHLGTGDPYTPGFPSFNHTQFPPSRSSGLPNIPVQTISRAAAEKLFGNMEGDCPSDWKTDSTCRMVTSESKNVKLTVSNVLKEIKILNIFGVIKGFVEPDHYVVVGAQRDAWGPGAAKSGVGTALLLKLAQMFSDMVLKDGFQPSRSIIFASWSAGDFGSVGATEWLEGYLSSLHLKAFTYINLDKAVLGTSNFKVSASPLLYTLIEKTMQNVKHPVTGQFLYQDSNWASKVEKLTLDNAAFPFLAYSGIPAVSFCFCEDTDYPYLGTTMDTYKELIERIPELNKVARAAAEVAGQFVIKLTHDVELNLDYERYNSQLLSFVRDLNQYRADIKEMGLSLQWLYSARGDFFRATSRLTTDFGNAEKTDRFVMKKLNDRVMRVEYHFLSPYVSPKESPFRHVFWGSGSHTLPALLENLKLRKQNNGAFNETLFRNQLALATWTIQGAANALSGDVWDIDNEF

B1: 2/99 VH1/VL14 (antibody, V domains shown)
VH: VQLVETGGGLIQPGGSLRLSCAASGFSLSSYAMSWVRQAPGKGLEWVGYIWSGGSTDYADSVKGRFTISRDNSKNTLYLQMNSLRAEDTAVYYCARRYGTSYPDYGDANGFDPWGQGTLVTVSS
VL: DIVMTQSPDSLAVSLGERATINCKSSQSISSYLSWYQQKPGQRPKLLIYRASTLASGVPDRFSGSGSGTDFTLTISSLQAEDVAVYYCQQSYSSSNVDNTFGGGTKVEIK
Regarding B1, the off-rate constant (koff) (in general, the first-order rate constant of dissociation) was determined as 0.00299 s⁻¹.

B2: 2/99 VH6/VL14 (antibody, V domains shown)
VH: B1 VH with V1Q, V47I
VL: B1 VL
Take B2: the koff is 0.0022 s⁻¹.

B3: 2/99 VH23-DANG/VL14 (antibody, V domains shown)
VH: QSMQESGPGLVKPSQTLSLTCTVSGFSLSSYAMSWIRQHPGKGLEWIGYIWSGGSTDYASWAKSRVTISKTSTTVSLKLSSVTAADTAVYYCARRYGTSYPDYGDANGFDPWGQGTLVTVSS
VL: B1 VL
In the case of B3, the koff came out at 0.000733 s⁻¹.

B4: 2/99 VH13/VL14 (antibody, V domains shown)
VH: QVQLQESGPGLVKPSETLSLTCTVSGFSLSSYAMSWIRQPPGKGLEWIGYIWSGGSTDYNPSLKSRVTISVDTSKNQVSLKLSSVTAADTAVYYCARRYGTSYPDYGDANGFDPWGQGTLVTVSS
VL: B1 VL
On to B4, for which the koff is 0.00222 s⁻¹.

B5: 2/99 VH9/VL14 (antibody, V domains shown)
VH: B1 VH with V1Q, V4L, T6S, I11V, S27T, L28F, R96K
VL: B1 VL
In the case of B5, the koff stood at 0.00332 s⁻¹.

B6: 2/99 VH18/VL14 (antibody, V domains shown)
VH: B4 VH with E16Q, P40H, N60A, V78F
VL: B1 VL
For the molecule B6, the koff is 0.003 s⁻¹.

B7: 2/99 VH5/VL15 (antibody, V domains shown)
VH: B1 VH with V1Q, Q2S, L3M, V4E, Q116P
VL: B1 VL with S34I, R43P, S91A
On to B7, for which the koff came out at 0.00637 s⁻¹.

B8: 2/99 VH21/VL14 (antibody, V domains shown)
VH: QSMQESGPGLVKPSQTLSLTCTVSGFSLSSYAMSWIRQHPGKGLEWIGYIWSGGSTDYASWAKSRVTISVDTSKNQVSLKLSSVTAADTAVYYCARRYGTSYPDYGDANGFDPWGQGTLVTVSS
VL: B1 VL
Regarding B8, the koff was 0.00103 s⁻¹.

B9: 2/99 VH9/VL15 (antibody, V domains shown)
VH: B1 VH with V1Q, V4L, T6S, I11V, S27T, L28F, R96K
VL: B1 VL with S34I, R43P, S91A
As for B9, the koff was determined as 0.00739 s⁻¹.

B10: 2/99 VH7/VL14 (antibody, V domains shown)
VH: B1 VH with V1Q, V47I, D60S, S61W, V62A
VL: B1 VL
In the case of B10, the dissociation rate constant (koff) worked out at 0.00153 s⁻¹.

B11: 2/99 VH8/VL15 (antibody, V domains shown)
VH: QQLVETGGGLIQPGGSLRLSCAASGFSLSSYAMSWVRQAPGKGLEWIGYIWSGGSTDYASWAKGRFTISKTSTTLYLQMNSLRAEDTAVYYCARRYGTSYPDYGDANGFDPWGQGTLVTVSS
VL: B1 VL with S34I, R43P, S91A
For B11, the koff was 0.00181 s⁻¹.

B12: 2/99 VH11/VL14 (antibody, V domains shown)
VH: B1 VH with V1Q, V4L, T6S, I11V
VL: B1 VL
As for B12, the koff was 0.00351 s⁻¹.

B13: 2/99 VH5/VL14 (antibody, V domains shown)
VH: B1 VH with V1Q, Q2S, L3M, V4E, Q116P
VL: B1 VL
For the molecule B13, the off-rate (koff) was determined as 0.00233 s⁻¹.

B14: 2/99 VH2/VL15 (antibody, V domains shown)
VH: EVQLVETGGGLIQPGGSLRLSCAASGFSLSSYAMSWVRQAPGKGLEWVGYIWSGGSTDYADSVKGRFTISRDNSKNTLYLQMNSLRAEDTAVYYCARRYGTSYPDYGDANGFDPWGQGTLVTVSS
VL: B1 VL with S34I, R43P, S91A
Consider B14, for which the koff was 0.00638 s⁻¹.

B15: 2/99 VH1/VL15 (antibody, V domains shown)
VH: B1 VH
VL: B1 VL with S34I, R43P, S91A
In the case of B15, the koff was 0.00669 s⁻¹.

B16: 2/99 VH6/VL15 (antibody, V domains shown)
VH: B1 VH with V1Q, V47I
VL: B1 VL with S34I, R43P, S91A
B16: the koff is 0.00421 s⁻¹.

B17: 2/99 VH2/VL14 (antibody, V domains shown)
VH: B14 VH
VL: B1 VL
On to B17, for which the koff came to 0.00244 s⁻¹.

B18: 2/99 VH12/VL14 (antibody, V domains shown)
VH: B4 VH with V78F
VL: B1 VL
B18: the koff is 0.00546 s⁻¹.

B19: 2/99 VH8/VL14 (antibody, V domains shown)
VH: B11 VH
VL: B1 VL
For the molecule B19, the off-rate constant (koff) was 0.00104 s⁻¹.

B20: 2/99 VH7/VL15 (antibody, V domains shown)
VH: B1 VH with V1Q, V47I, D60S, S61W, V62A
VL: B1 VL with S34I, R43P, S91A
As to B20, the koff stood at 0.00273 s⁻¹.

B21: 2/99 VH11/VL15 (antibody, V domains shown)
VH: B1 VH with V1Q, V4L, T6S, I11V
VL: B1 VL with S34I, R43P, S91A
For B21, the koff came to 0.00709 s⁻¹.

B22: 2/99 VH17/VL12 (antibody, V domains shown)
VH: QQLQESGPGLVKPSETLSLTCTVSGFSLSSYAMSWVRQPPGKGLEWIGYIWSGGSTDYNPSLKSRVTISKDTSKNQVSLKLSSVTAADTAVYYCARRYGTSYPDYGDANGFDPWGPGTLVTVSS
VL: DIQMTQSPSSLSASVGDRVTITCRASQSISSYLAWYQQKPGKAPKLLIYRASTLASGVPSRFSGSRSGTDFTLTISSLQPEDFATYYCQQHYSSSNVDNTFGGGTKVEIK
Take B22: the koff turned out to be 0.00284 s⁻¹.

B23: 2/99 VH20/VL14 (antibody, V domains shown)
VH: B8 VH with S60P, W61S, A62L
VL: B1 VL
B23: the koff is 0.00239 s⁻¹.

B24: 2/99 VH21/VL12 (antibody, V domains shown)
VH: B8 VH
VL: B22 VL
In the case of B24, the off-rate (koff) turned out to be 0.00754 s⁻¹.

B25: 2/99 VH15/VL14 (antibody, V domains shown)
VH: B22 VH with K70V, P116Q
VL: B1 VL
Turning to B25, the koff turned out to be 0.00194 s⁻¹.

B26: 2/99 VH16/VL14 (antibody, V domains shown)
VH: B22 VH with K70V
VL: B1 VL
For B26, the koff is 0.00175 s⁻¹.

B27: 2/99 VH19/VL14 (antibody, V domains shown)
VH: B8 VH with S60P, W61S, A62L, V77F
VL: B1 VL
Consider B27, for which the koff was 0.00796 s⁻¹.

B28: 2/99 VH20/VL12 (antibody, V domains shown)
VH: B8 VH with S60P, W61S, A62L
VL: B22 VL
In the case of B28, the koff amounted to 0.001 s⁻¹.

B29: 2/99 VH17/VL14 (antibody, V domains shown)
VH: B22 VH
VL: B1 VL
Regarding B29, the koff was determined as 0.00105 s⁻¹.

B30: 2/99 VH18/VL12 (antibody, V domains shown)
VH: B4 VH with E16Q, P40H, N60A, V78F
VL: B22 VL
B30: the koff amounted to 0.001 s⁻¹.

B31: 2/99 VH22/VL14 (antibody, V domains shown)
VH: B8 VH with I36V
VL: B1 VL
As to B31, the koff is 0.00112 s⁻¹.

B32: 2/99 VH22/VL12 (antibody, V domains shown)
VH: B8 VH with I36V
VL: B22 VL
B32: the koff turned out to be 0.00644 s⁻¹.

B33: 2/99 VH19/VL12 (antibody, V domains shown)
VH: B8 VH with S60P, W61S, A62L, V77F
VL: B22 VL
B33: the koff came out at 0.001 s⁻¹.

The values above are taken from patent US20180291110A1 (Hoffmann-La Roche, published 2018).
